How the values were obtained:
[1] = target: human GLP-1R-LgBiT-2MBP (glucagon-like peptide-1 receptor, construct for structure determination) (human) (UniProt P43220)
[2] = target: human GLP-1R-LgBiT-2MBP (glucagon-like peptide-1 receptor, construct for structure determination) (human) (UniProt P43220); remark: listed apart in the source

Sequence of UniProt P43220 (P43220 24-463): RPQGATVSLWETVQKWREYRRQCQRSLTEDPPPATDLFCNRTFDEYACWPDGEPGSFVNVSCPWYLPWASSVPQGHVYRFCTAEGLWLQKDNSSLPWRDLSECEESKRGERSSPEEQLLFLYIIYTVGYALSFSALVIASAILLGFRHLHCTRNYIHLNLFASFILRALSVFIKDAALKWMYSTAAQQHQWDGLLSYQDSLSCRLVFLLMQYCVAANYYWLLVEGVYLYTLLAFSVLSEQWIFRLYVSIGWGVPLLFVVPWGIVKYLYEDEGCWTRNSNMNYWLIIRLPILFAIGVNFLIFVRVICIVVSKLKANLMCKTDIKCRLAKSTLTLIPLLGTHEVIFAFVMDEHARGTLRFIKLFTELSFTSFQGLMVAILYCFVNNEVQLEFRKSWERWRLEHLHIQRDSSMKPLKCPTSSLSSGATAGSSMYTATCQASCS

GLP-1(9-36)NH2 (peptide)
EC50 of cAMP accumulation, WT GLP-1R, with 50 nM LSN3318839 (full agonist) [1]: 23 nM | EC50 of cAMP accumulation, WT GLP-1R, with 5 μM LSN3318839 [2]: 0.41 nM

— paper doi:10.1101/2024.07.21.604514
